Strand notation (5' to 3'): a small letter for the sugar, then the base; units joined by * are phosphorothioate-linked, units joined directly phosphodiester-linked; [ ] holds rarer units or linkages, { } end groups; capitals alone tell only the bases. m = 2'-O-methyl; r = 2'-OH (RNA)
B1: G000510: TTR Cyno specific sgRNA modified sequence, SEQ ID No. 122; guide sequence of CR005370 (nucleic acid)
guide: mA*mC*mU*rUrGrUrCrUrUrCrUrCrUrArUrArCrCrCrArGrUrUrUrUrArGrAmGmCmUmAmGmAmAmAmUmAmGmCrArArGrUrUrArArArArUrArArGrGrCrUrArGrUrCrCrGrUrUrArUrCrAmAmCmUmUmGmAmAmAmAmAmGmUmGmGmCmAmCmCmGmAmGmUmCmGmGmUmGmCmU*mU*mU*mU
B2: G000505: TTR Cyno specific sgRNA modified sequence, SEQ ID No. 117; guide sequence of CR005365 (nucleic acid)
guide: mC*mA*mU*rUrGrArCrArGrCrArGrGrArCrUrGrCrCrUrGrUrUrUrUrArGrAmGmCmUmAmGmAmAmAmUmAmGmCrArArGrUrUrArArArArUrArArGrGrCrUrArGrUrCrCrGrUrUrArUrCrAmAmCmUmUmGmAmAmAmAmAmGmUmGmGmCmAmCmCmGmAmGmUmCmGmGmUmGmCmU*mU*mU*mU
B3: G000508: TTR Cyno specific sgRNA modified sequence, SEQ ID No. 120; guide sequence of CR005368 (nucleic acid)
guide: mC*mC*mU*rCrCrUrCrUrGrCrCrUrCrGrCrUrGrGrArCrGrUrUrUrUrArGrAmGmCmUmAmGmAmAmAmUmAmGmCrArArGrUrUrArArArArUrArArGrGrCrUrArGrUrCrCrGrUrUrArUrCrAmAmCmUmUmGmAmAmAmAmAmGmUmGmGmCmAmCmCmGmAmGmUmCmGmGmUmGmCmU*mU*mU*mU
B4: G000503: TTR Cyno specific sgRNA modified sequence, SEQ ID No. 115; guide sequence of CR005372 (nucleic acid)
guide: mA*mA*mA*rArGrGrCrUrGrCrUrGrArUrGrArGrArCrCrGrUrUrUrUrArGrAmGmCmUmAmGmAmAmAmUmAmGmCrArArGrUrUrArArArArUrArArGrGrCrUrArGrUrCrCrGrUrUrArUrCrAmAmCmUmUmGmAmAmAmAmAmGmUmGmGmCmAmCmCmGmAmGmUmCmGmGmUmGmCmU*mU*mU*mU
B5: G000509: TTR Cyno specific sgRNA modified sequence, SEQ ID No. 121; guide sequence of CR005369 (nucleic acid)
guide: mA*mA*mA*rGrUrUrCrUrArGrArUrGrCrCrGrUrCrCrGrGrUrUrUrUrArGrAmGmCmUmAmGmAmAmAmUmAmGmCrArArGrUrUrArArArArUrArArGrGrCrUrArGrUrCrCrGrUrUrArUrCrAmAmCmUmUmGmAmAmAmAmAmGmUmGmGmCmAmCmCmGmAmGmUmCmGmGmUmGmCmU*mU*mU*mU
B6: G000507: TTR Cyno specific sgRNA modified sequence, SEQ ID No. 119; guide sequence of CR005367 (nucleic acid)
guide: mC*mC*mA*rGrUrCrCrArGrCrGrArGrGrCrArGrArGrGrGrUrUrUrUrArGrAmGmCmUmAmGmAmAmAmUmAmGmCrArArGrUrUrArArArArUrArArGrGrCrUrArGrUrCrCrGrUrUrArUrCrAmAmCmUmUmGmAmAmAmAmAmGmUmGmGmCmAmCmCmGmAmGmUmCmGmGmUmGmCmU*mU*mU*mU
B7: G000511: TTR Cyno specific sgRNA modified sequence, SEQ ID No. 123; guide sequence of CR005371 (nucleic acid)
guide: mA*mA*mG*rUrGrArCrUrUrCrCrArGrUrArArGrArUrUrGrUrUrUrUrArGrAmGmCmUmAmGmAmAmAmUmAmGmCrArArGrUrUrArArArArUrArArGrGrCrUrArGrUrCrCrGrUrUrArUrCrAmAmCmUmUmGmAmAmAmAmAmGmUmGmGmCmAmCmCmGmAmGmUmCmGmGmUmGmCmU*mU*mU*mU
B8: G000504: TTR Cyno specific sgRNA modified sequence, SEQ ID No. 116; guide sequence of CR005364 (nucleic acid)
guide: mA*mA*mA*rGrGrCrUrGrCrUrGrArUrGrArGrArCrCrUrGrUrUrUrUrArGrAmGmCmUmAmGmAmAmAmUmAmGmCrArArGrUrUrArArArArUrArArGrGrCrUrArGrUrCrCrGrUrUrArUrCrAmAmCmUmUmGmAmAmAmAmAmGmUmGmGmCmAmCmCmGmAmGmUmCmGmGmUmGmCmU*mU*mU*mU

Assays:
TTR [1] = assay: TTR editing in primary cyno hepatocytes treated with LNP formulated Spy Cas9 mRNA (SEQ ID NO: 2) and sgRNAs (Tables 17, 18); assay type: cell-based, cynomolgus monkey; details: LNP formulated Spy Cas9 mRNA (SEQ ID NO: 2) and cyno matched sgRNAs, 72 hours post treatment
Experimental: (§1) Primary liver hepatocytes. Primary human liver hepatocytes (PHH) and primary cynomolgus liver hepatocytes (PCH) (Gibco) were cultured per the manufacturer's protocol (Invitrogen, protocol 11.28.2012). In brief, the cells were thawed and resuspended in hepatocyte thawing medium with supplements (Gibco, Cat. CM7000) followed by centrifugation at 100 g for 10 minutes for human and 80 g for 4 minutes for cyno. The supernatant was discarded and the pelleted cells resuspended in hepatocyte plating medium plus supplement pack (Invitrogen, Cat. A1217601 and CM3000). Cells were counted and plated on Bio-coat collagen I coated 96-well plates (ThermoFisher, Cat. 877272) at a density of 33,000 cells/well for human or 60,000 cells/well for cyno (or 65,000 cells/well when assaying effects on TTR protein, described further below). Plated cells were allowed to settle and adhere for 6 or 24 hours in a tissue culture incubator at 37° C. and 5% CO2 atmosphere. After incubation cells were checked for monolayer formation and media was replaced with hepatocyte culture medium with serum-free supplement pack (Invitrogen, Cat. A1217601 and CM4000).
In general, the lipid nanoparticle components were dissolved in 100% ethanol with the lipid component of various molar ratios. The RNA cargos were dissolved in 25 mM citrate, 100 mM NaCl, pH 5.0, resulting in a concentration of RNA cargo of approximately 0.45 mg/mL. The LNPs were formulated with a lipid amine to RNA phosphate (N:P) molar ratio of about 4.5 or about 6, with the ratio of mRNA to gRNA at 1:1 by weight.
The LNPs were formed by microfluidic mixing of the lipid and RNA solutions using a Precision Nanosystems NanoAssemblr™ Benchtop Instrument, according to the manufacturer's protocol. A 2:1 ratio of aqueous to organic solvent was maintained during mixing using differential flow rates. After mixing, the LNPs were collected, diluted in water (approximately 1:1 v/v), held for 1 hour at room temperature, and further diluted with water (approximately 1:1 v/v) before final buffer exchange. The final buffer exchange into 50 mM Tris, 45 mM NaCl, 5% (w/v) sucrose, pH 7.5 (TSS) was completed with PD-10 desalting columns (GE). If required, formulations were concentrated by centrifugation with Amicon 100 kDa centrifugal filters (Millipore). The resulting mixture was then filtered using a 0.2 μm sterile filter. The final LNP was stored at −80° C. until further use.
(§2) To quantitatively determine the efficiency of editing at the target location in the genome, sequencing was utilized to identify the presence of insertions and deletions introduced by gene editing.
(§3) Primers were designed around the target site within the gene of interest (e.g. TTR), and the genomic area of interest was amplified.
(§4) Additional PCR was performed per the manufacturer's protocols (Illumina) to add chemistry for sequencing. The amplicons were sequenced on an Illumina MiSeq instrument. The reads were aligned to a reference genome (e.g., the human reference genome (hg38), the cynomologus reference genome (mf5), the rat reference genome (rn6), or the mouse reference genome (mm10)) after eliminating those having low quality scores. The resulting files containing the reads were mapped to the reference genome (BAM files), where reads that overlapped the target region of interest were selected and the number of wild type reads versus the number of reads which contain an insertion, substitution, or deletion was calculated.
(§5) The editing percentage (e.g., the “editing efficiency” or “percent editing” or “indel frequency”) is defined as the total number of sequence reads with insertions/deletions (“indels”) or substitutions over the total number of sequence reads, including wild type.
Lipid nanoparticle formulations of modified sgRNAs targeting human TTR and the cyno matched sgRNA sequences were tested on primary human hepatocytes and primary cyno hepatocytes in a dose response curve. Primary human and cyno hepatocytes were plated as described in Example 1. […]

TTR [2] = assay: TTR editing in primary cyno hepatocytes electroporated with Spy Cas9 protein and sgRNAs (Tables 14, 15); assay type: cell-based, cynomolgus monkey; details: Table 15; primary cyno hepatocytes electroporated with Spy Cas9 protein (RNP) and cyno specific sgRNAs
Experimental: as §1
Ribonucleotide formation was performed prior to electroporation or transfection of Spy Cas9 protein loaded with guide RNAs (RNPs) onto cells. For dual guide (dgRNAs), individual crRNA and trRNA was pre-annealed by mixing equivalent amounts of reagent and incubating at 95° C. for 2 min and cooling to room temperature. Single guide (sgRNAs) were boiled at 95° C. for 2 min and cooling to room temperature. The boiled dgRNA or sgRNA was incubated with Spy Cas9 protein in Optimem for 10 minutes at room temperature to form a ribonucleoprotein (RNP) complex.
For RNP electroporation into primary human and cyno hepatocytes, the cells are thawed and resuspended in Lonza electroporation Primary Cell P3 buffer at a concentration of 2500 cells per μL for human hepatocytes and 3500 cells per μL for cyno hepatocytes. A volume of 20 μL of resuspended cells and 5 μL of RNP are mixed together per guide. 20 μL of the mixture is placed into a Lonza electroporation plate. The cells were electroporated using the Lonza nucleofector with the preset protocol EX-147. Post electroporation, the cells are transferred into a Biocoat plate containing pre-warmed maintenance media and placed in a tissue culture incubator at 37° C. and 5% CO2.
Transfected cells were harvested post-transfection at 24, 48, or 72 hours. The genomic DNA was extracted from each well of a 96-well plate using 50 μL/well BuccalAmp DNA Extraction solution (Epicentre, Cat. QE09050) per manufacturer's protocol. All DNA samples were subjected to PCR and subsequent NGS analyses, as described herein.
as §2, §3, §4
The editing percentage (e.g., the “editing efficiency” or “percent editing” or “indel frequency”) is defined as the total number of sequence reads with insertions/deletions (“indels”) or substitutions over the total number of sequence reads, including wild type. […]

TTR [3] = assay: EC50 and maximum editing in primary human hepatocytes treated with LNP formulated U-depleted Spy Cas9 mRNA and sgRNAs (Tables 19, 21); assay type: cell-based; parameters: key: % of sequence reads with indels or substitutions over total reads; details: Table 21, LNP with U-depleted Spy Cas9 mRNA and cyno specific sgRNAs, dose response
Experimental: as §1
(§6) For LNPs prepared using the cross-flow technique, the LNPs were formed by impinging jet mixing of the lipid in ethanol with two volumes of RNA solutions and one volume of water. The lipid in ethanol is mixed through a mixing cross with the two volumes of RNA solution. A fourth stream of water is mixed with the outlet stream of the cross through an inline tee. (See WO2016010840 FIG. 2.) The LNPs were held for 1 hour at room temperature, and further diluted with water (approximately 1:1 v/v). Diluted LNPs were concentrated using tangential flow filtration on a flat sheet cartridge (Sartorius, 100 kD MWCO) and then buffer exchanged by diafiltration into 50 mM Tris, 45 mM NaCl, 5% (w/v) sucrose, pH 7.5 (TSS). Alternatively, the final buffer exchange into TSS was completed with PD-10 desalting columns (GE). If required, formulations were concentrated by centrifugation with Amicon 100 kDa centrifugal filters (Millipore). The resulting mixture was then filtered using a 0.2 μm sterile filter. The final LNP was stored at 4° C. or −80° C. until further use.
as §2, §3, §4, §5
(§7) Lipid nanoparticle formulations of modified sgRNAs targeting human TTR and the cyno matched sgRNA sequences were tested on primary human hepatocytes and primary cyno hepatocytes in a dose response curve. Primary human and cyno hepatocytes were plated as described in Example 1. Both cell lines were incubated at 37° C., 5% CO2 for 24 hours prior to treatment with LNPs. […]

TTR [4] = assay: EC50 and maximum editing in primary cyno hepatocytes treated with LNP formulated U-depleted Spy Cas9 mRNA and sgRNAs (Tables 20, 22); assay type: cell-based, cynomolgus monkey; parameters: key: % of sequence reads with indels or substitutions over total reads; details: Table 22, LNP with U-depleted Spy Cas9 mRNA and cyno specific sgRNAs, dose response
Experimental: as §1, §6, §2, §3, §4, §5, §7

Molecule | 12.5 ng mRNA, 3.9 nM sgRNA % Edit (TTR [1]) | Avg % Deletion (TTR [2]) | Avg % Edit (TTR [2]) | Avg % Insert (TTR [2]) | Max Editing (TTR [3]) | Max Editing (TTR [4])
B1 | 61.87% | 1.77% | 90.80% | 89.13% |  | 
B2 |  | 0.10% | 95.53% | 95.50% | 13.48 | 99.97
B3 |  | 4.17% | 45.63% | 41.57% |  | 
B4 |  | 6.50% | 58.53% | 52.07% |  | 83.41
B5 | 74.47% | 49.73% | 93.03% | 43.60% |  | 
B6 |  | 4.60% | 71.17% | 67.03% |  | 
B7 |  | 2.00% | 62.77% | 60.87% |  | 
B8 |  | 7.53% | 77.17% | 69.73% | 7.16 | 98.04
